The test system of one assay is influenza virus. The class given is cell-based. The note with it: for % cell death after 72 h TCID50 influenza virus infection: protease 0.5 μg/ml, MDCK cells, serum free medium, virus control 48.21 ± 6.77.
The test system of the next assay is herpes virus. The class given is cell-based. The note with it: for % cell death after 72 h TCID50 herpes virus infection: protease 0.5 μg/ml, Vero cells, serum free medium, virus control 56.0 ± 2.3.

B1: MMP-12: purified human MMP-12 (elastase), AnaSpec (protein, UniProt P39900 106-470, looked up)
Macrophage metalloelastase: GPVWRKHYITYRINNYTPDMNREDVDYAIRKAFQVWSNVTPLKFSKINTGMADILVVFARGAHGDFHAFDGKGGILAHAFGPGSGIGGDAHFDEDEFWTTHSGGTNLFLTAVHEIGHSLGLGHSSDPKAVMFPTYKYVDINTFRLSADDIRGIQSLYGDPKENQRLPNPDNSEPALCDPNLSFDAVTTVGNKIFFFKDRFFWLKVSERPKTSVNLISSLWPTLPSGIEAAYEIEARNQVFLFKDDKYWLISNLRPEPNYPKSIHSFGFPNFVKKIDAAVFNPRFYRTYFFVDNQYWRYDERRQMMDPGYPKLITKNFQGIGPKIDAVFYSKNKYYYFFQGSNQFEYDFLLQRITKTLKSNSWFGC
In the case of B1, in the assay on influenza virus, the “% increase in influenza viral growth compared to virus control” value is “+1.41%” and the “% cell death after 72 h TCID50 influenza virus infection” value is 48.89 ± 4.39%. Also, in the assay with herpes virus, the “% increase in herpes virus growth compared to controls” value is listed as “+19.86%” and the “% cell death after 72 h TCID50 herpes virus infection” value is 67.12 ± 5.91%.

B2: MMP-2: purified human MMP 2 (gelatinase A), AnaSpec (protein, UniProt P08253 110-660, looked up)
72 kDa type IV collagenase: YNFFPRKPKWDKNQITYRIIGYTPDLDPETVDDAFARAFQVWSDVTPLRFSRIHDGEADIMINFGRWEHGDGYPFDGKDGLLAHAFAPGTGVGGDSHFDDDELWTLGEGQVVRVKYGNADGEYCKFPFLFNGKEYNSCTDTGRSDGFLWCSTTYNFEKDGKYGFCPHEALFTMGGNAEGQPCKFPFRFQGTSYDSCTTEGRTDGYRWCGTTEDYDRDKKYGFCPETAMSTVGGNSEGAPCVFPFTFLGNKYESCTSAGRSDGKMWCATTANYDDDRKWGFCPDQGYSLFLVAAHEFGHAMGLEHSQDPGALMAPIYTYTKNFRLSQDDIKGIQELYGASPDIDLGTGPTPTLGPVTPEICKQDIVFDGIAQIRGEIFFFKDRFIWRTVTPRDKPMGPLLVATFWPELPEKIDAVYEAPQEEKAVFFAGNEYWIYSASTLERGYPKPLTSLGLPPDVQRVDAAFNWSKNKKTYIFAGDKFWRYNEVKKKMDPGFPKLIADAWNAIPDNLDAVVDLQGGGHSYFFKGAYYLKLENQSLKSVKFGSIKSDWLGC
Turning to B2, in the assay on influenza virus, the “% increase in influenza viral growth compared to virus control” value is listed as “+49.14%” and the “% cell death after 72 h TCID50 influenza virus infection” value is listed as 71.90 ± 8.21%. Moreover, in the assay on herpes virus, the “% increase in herpes virus growth compared to controls” value is on record as “+31.43%” and the “% cell death after 72 h TCID50 herpes virus infection” value amounted to 73.6 ± 6.20%.

The record behind these values is patent publication US8709506B2, “Synergistic compositions for the treatment of topical viral infections” (Vitro Bio Sarl, priority 2010, dated 2014).
